Here are results for two molecules from patent publication US11207404B2, “Compositions and uses” (priority 2015, dated 2021).

By Solubility is commonly meant how much of the substance goes into solution per volume. Lower therefore signals little dissolved substance.

The nature of data set [1]: Antigen fragment solubility/stability (Table 1). Format: physicochemical. The source says:
Antigen (abbreviated as “Ag” herein) fragments employed in the present invention typically have certain properties useful in conjugation. In one aspect, the antigen fragments are proteins that are stable in solution and not prone to any substantial aggregation. In another aspect the antigen fragment contains a minimum of three available amines at which conjugation can occur and have a size of less than 500 kD.
Such fragments are readily commercially available and/or can be readily made by those skilled in the ar.

Data set [2] is described as follows: Visual assessment of adverse effect on injection site in pigs. Format: in vivo. The following applies: extra dose of 150 μg of Compound A alone; 2 pigs. As to the method: A brief adverse effect visual assessment on injection site was performed on 2 random chosen pigs by testing an extra dose of 150 μg of Compound A alone.

For the molecule Tetanus Toxoid, in data set [1], the Solubility is 30 mg/mL and the Stability entry is given as “years”.

For the molecule `CCCCOc1nc(N)c2[nH]c(=O)n(CC3CCNCC3)c2n1` [Compound A], the “visual adverse effect of the injected site” value in data set [2] was “No visual adverse effect of the injected site was observed”.
